Results published in US11752211B2, “Fatty acids and their use in conjugation to biomolecules” (NOVARTIS AG, priority 2014, dated 2023).
Positions of bridges follow the written chain, without caps; N, C: chain ends. No end group written: not given here.

Assays:
MC3R = biological target: T1, MC3R (Homo sapiens, UniProt P41968); experiment: MC3 cAMP assay in HEK293/MC3R cells (antagonist protocol); type: cell-based; conditions: HEK293/MC3R stable cell line, against NDP-α-MSH EC80
T1 construct: expressed in transfected cells; host or cells: HEK293
T1 sequence (P41968 whole entry, species assumed): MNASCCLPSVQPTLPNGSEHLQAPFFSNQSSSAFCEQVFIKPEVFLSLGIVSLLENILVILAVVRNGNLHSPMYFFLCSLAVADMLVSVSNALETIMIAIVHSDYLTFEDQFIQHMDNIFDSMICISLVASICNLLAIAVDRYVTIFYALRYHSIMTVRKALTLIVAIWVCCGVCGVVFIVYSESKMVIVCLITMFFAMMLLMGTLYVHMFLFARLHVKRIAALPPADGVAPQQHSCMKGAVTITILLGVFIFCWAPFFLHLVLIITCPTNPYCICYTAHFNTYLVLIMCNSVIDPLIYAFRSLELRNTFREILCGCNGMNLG
Method: Cells: HEK293/MC3R stable cell line
• I. Aspirate conditioned medium • II. Wash with 2.5 mL of DPBS (Gibco, Cat. No. 14190) • III. Add 2 mL of 0.25% Trypsin-EDTA (Gibco, Cat. No. 25200-056) • IV. Leave the flask for few minutes in incubator, tap the flask a few time to detach cells. • V. Add 10 mL of the complete medium to stop Trypsin-EDTA treatment and mix it well by pipetting softly a few times to re-suspend clumping cells • VI. Transfer 1.5 ml of cells into a new 150 cm flask containing 20 ml of complete media • VII. Transfer the remaining suspension into a 50 mL centrifuge tube • VIII. Spin down at 1200 rpm for 4 mins. Aspirate supernatant • IX. Add 6 mL of the assay buffer to the tube and re-suspend the cells by softly pipetting • X. Transfer 0.5 mL of the suspension into a sample vial for Vi-cell and add another 0.5 ml of PBS. • XI. Count cell number by using a Vi-cell *Record cell density and viability every time • i. Plate cells at 4K/well in 10 ul/well of assay buffer containing IBMX. • ii. Leave the plate in incubator for ˜30 mins before assay is started on suspension cells.
Two step cAMP protocol is followed for cAMP determination.
• I. To 10 ul/well of cells add 5 ul of AgRP prepared at 3× in assay buffer only to antagonist wells. • II. Add 5 ul of buffer to positive control wells (wells that will have NDP-α-MSH). • III. Incubate the plate at 37° C. for ˜20 mins. • IV. […]

[1] = In vivo plasma stability of AgRP conjugates, 10 nanomoles per rat iv, AgRP ELISA; conditions: male Sprague-Dawley rats, 10 nanomoles per rat intravenously
Method: 10 nanomoles of conjugate was dissolved in 300 μL of PBS (Phosphate buffered saline) to form Dosing solution. Dosing solution ([…]) was administered intravenously to male Sprague-Dawley rats via lateral tail vein (corresponding to a dose 10 nanomoles per rat). Blood was collected via tail snip at prescribed times after dosing and immediately placed on wet ice. These samples were centrifuged at 4C, with supernatant plasma transferred to a fresh tube for analysis.
Standard curve preparation: The two fatty acid conjugates of examples 27A and 27B and one mature human AgRP peptide were used to make standards. Intermediate stock solutions of each AgRP were prepared by diluting the stock labeled peptides in ELISA sample diluent with casein to 100 ug/ml. For assay, intermediates were diluted to a top standard concentration of 2500 pg/mL and then diluted 2-fold serially to 16 points including a zero dose standard in ELISA sample diluent with bovine serum albumin (BSA). Sample dilution: Plasma samples were diluted 10-fold and then 5-fold serially out to 31,250-fold in ELISA sample diluent with BSA. […] Plates were washed a final time and a chemiluminescent substrate was added to all wells and plates were read immediately on a Spectramx M5 for light output. Data analysis: Raw data was organized and analyzed for basic PK parameters. […]

RXFP1 [2] = biological target: T2, RXFP1 (Homo sapiens, UniProt Q9HBX9); experiment: Serelaxin in vitro activity in presence of bovine serum albumin and human serum #2: cAMP in RXFP1-HEK293 cells; type: cell-based
T2 construct: expressed in transfected cells; host or cells: HEK293
T2 sequence (Q9HBX9 1-757): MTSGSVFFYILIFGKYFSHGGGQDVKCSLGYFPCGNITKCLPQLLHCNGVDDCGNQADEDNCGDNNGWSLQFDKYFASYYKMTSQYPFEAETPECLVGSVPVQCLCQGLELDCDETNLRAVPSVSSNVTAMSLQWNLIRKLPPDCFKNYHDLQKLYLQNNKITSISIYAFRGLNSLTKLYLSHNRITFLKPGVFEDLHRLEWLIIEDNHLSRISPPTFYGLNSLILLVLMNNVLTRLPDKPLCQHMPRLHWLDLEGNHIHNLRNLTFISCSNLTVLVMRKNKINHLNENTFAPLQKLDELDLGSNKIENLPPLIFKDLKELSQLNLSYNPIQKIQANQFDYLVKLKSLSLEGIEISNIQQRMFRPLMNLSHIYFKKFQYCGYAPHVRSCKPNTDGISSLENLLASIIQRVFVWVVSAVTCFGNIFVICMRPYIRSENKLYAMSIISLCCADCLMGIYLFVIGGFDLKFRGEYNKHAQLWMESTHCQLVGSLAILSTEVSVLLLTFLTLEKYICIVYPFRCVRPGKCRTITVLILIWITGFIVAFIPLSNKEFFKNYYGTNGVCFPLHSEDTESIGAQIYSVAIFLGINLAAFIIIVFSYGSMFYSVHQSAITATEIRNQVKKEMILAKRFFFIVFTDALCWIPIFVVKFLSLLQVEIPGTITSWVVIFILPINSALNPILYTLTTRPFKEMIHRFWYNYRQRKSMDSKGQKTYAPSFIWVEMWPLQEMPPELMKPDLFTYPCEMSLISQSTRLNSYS
Method: In Vitro Activity in Presence of Bovine Serum Albumin and Human Serum #2: Materials: DMEM: F12 media (Gibco, cat #11320) IBMX (Sigma, cat #15879) 384 solid bottom white plates (Greiner bio-one, cat #781945) 20,000 dynamic-2 cAMP kit (Cisbio, cat #62AM4PEC) Adenosine 3′, 5′-cyclic monophosphate (Sigma, cat #A9501) Matrix-plate mate plus (used for adding 5 μl of assays reagents) PBS-Gibco (cat #10010-023) 1M HEPES Gibco (cat-15630-080) 1×HBSS Gibco (cat-14175-095) Assay buffer—1×HBSS+10 mM HEPES Bovine serum albumin cat #A2153 (Sigma-Aldrich) Sigma Aldrich—H4522 (Human serum) Conditions:
10% Human Serum (Sigma aldrich—H4522)
• Serelaxin 10 ul stock dissolved in 190 ul of PBS, final concentration is 40 μM, which are diluted 3× fold by transferring 30 ul to 60 ul of the assay buffer 11 point curve, (A2-A12) 12th is zero. Serelaxin-FA conjugate: Stock is (287.79 uM) i.e 2.61 mg/ml MW is 9069 Daltons • Serelaxin 27.798 ul stock dissolved in 172.2 ul of PBS, final concentration is 40 μM, which are diluted 3× fold by transferring 30 ul to 60 ul of the assay buffer 11 point curve, (A2-A12) 12th is zero. BSA Stock Solution Preparation: For 666.66 uM BSA: Made assay buffer 30 mls by dissolving 1.32 gms of BSA For 600 uM BSA: Made assay buffer 30 ms by dissolving 1.18 gms of BSA No BSA, has only assay buffer Human Serum For 4.44% HS: 1.34 mls in 28.66 mls of assay buffer For 4% HS: 1.2 mls in 28.8 mls of assay buffer For 11.11% HS: 3.33 mls in 26.67 mls of assay buffer For 10% HS: 3 mls in 27 mls of assay buffer Procedure: Day 1: Seed 8,000 cells/well of RXFP1-HEK293 and HEK293 (parental) cells in 10 μl/well volume in basal DMEM:F12 media-on solid bottom plate. Incubate cells overnight at 37° C./5% CO2. Day 2: • 1. Wash cells 2× times with 50 ul of assay buffer and were tapped gently on paper towel to get rid of assay buffer after first and second wash • 2. Cells were pretreated with 15 ul of media with IBMX (666.66 uM) containing respective media (600 uM of BSA, 4% BSA, 10% Human serum and assay buffer alone) for 30 minutes at 37° C. • 3. Serially dilute cpds 3× times, 11 point curve—transferring 15 ul of cpds from previous well to subsequent well with 30 ul of PBS, well 11 is PBS only • 4. Dilute (1:10) in assay buffer from step 3 (i.e is 10 ul to 90 ul of assay buffer) • 5. Dilute again from step 4 (1:10) in respective media (666.66 μM of BSA &4.44% & 11.11% Human serum and assay buffer) final con of the BSA is 600 μM and Human serum is 4 & 10% • 6. (*Incubate the cpds for 1 hr at RT in their respective media, before adding to cells) • 7. […] Read FRET on Envision • 12. cAMP std curves were made in their respective media. cAMP Standard Curve Dilutions:
The initial stock of cAMP standard is 1120000 nM • 1. […] Read on HTRF—Envision Analysis: […]

RXFP1 [3] = biological target: T2, RXFP1; experiment: Serelaxin in vitro activity assay #1: cAMP HTRF in RXFP1-HEK293 cells; type: cell-based; conditions: DMEM:F12 media
Method: Protocol: Day 1: Seeded RXFP1-HEK293/parental HEK293 cells 8k in 10 μl of DMEM: F12 media in solid bottom PDL coated white plates Day 2: Ran assay with the compound Agonist Mode (Overview): • Cells in 10 μl of DMEM:F12 media @37° C. O/N • 5 μl of 2000 μM (4×) of IBMX to the cells for 30 min at 37° C. • 5 μl of 4× compound/Serelaxin to the above for 30 min at 37° C. […]
Read FRET signal—Envision 665 nm/620 nm […]

[4] = test system: high fat diet-induced obese (DIO) mice; experiment: Glucose-stimulated insulin secretion (GSIS) assay; type: in vivo; conditions: single IV dose 45 min before oral glucose 3 g/kg
Method: GSIS test was performed as a measurement of in vivo pancreatic beta cell function following recombinant human Prolactin-inducible Protein (hPIP) in high fat diet-induced obese (DIO) mice. Briefly, mice (m=5-7/group) were fasted overnight (5:00 PM-8:00 AM) and on the test day body weight and blood glucose (BG; determined with Embrace glucose meters) which was designated as baseline timepoint. Next, mice were administered with hPIP (native and FA-conjugated PIP; solution in PBS; administered at 4 ml/kg body weight) or a vehicle-control (PBS) once intravenuously (IV). Forty-five min following the hPIP administration, all mice were dosed with oral glucose (3 g/kg dextrose; solution in PBS; administered at 4 ml/kg body weight). Blood glucose was measured immediately before the glucose load (designated as 0 min time point) and at 15 and 30 min post-glucose. Blood samples were collected for plasma isolation and measurement of plasma insulin were carried out at 0, 15 and 30 min post-glucose.

[5] = Pharmacokinetics (PK) assay of hPIP, single IV administration; type: in vivo; conditions: DIO mice
Method: Plasma exposure of hPIP were measured in DIO mice following a single IV administration. Briefly, freely-fed DIO mice (n=2) were administered with hPIP (native and FA-conjugated PIP; solution in PBS; administered at 4 ml/kg body weight) once intravenuously (IV). Blood samples were collected and plasma isolated at 0.25, 0.5, 1, 3, 7, 24 and 48 hrs post-dose by and in-house ELISA assay (protocol shown below).

In the case of “AgRP: mature human AgRP peptide (SSRRCVRLHESCLGQQVPCCDPCATCYCRFFNAFCYCRKLGTAMNPCSRT; disulfide 12-26, 19-37, 5-20, 23-47, 28-35)”, the EC50 (MC3R) is reported as 12 nM and the “In vivo Plasma stability t½” value [1] is reported as 4.4 h.

“Serelaxin: Recombinant 1-chain human relaxin (DSWMEEVIKLCGRELVRAQIAICGMSTWSCFRALSRKTCGVHCCKNALASYLE; Serelaxin Sequence)” gave an EC50 (RXFP1 [2]; 0% Plasma) of 8 nM, an EC50 (RXFP1 [2]; 4% Plasma) of 0.3 nM and an EC50 (RXFP1 [2]; 10% Plasma) of 0.4 nM. It also gave an EC50 (RXFP1 [2]; 600 uL BSA) of 0.7 nM and an EC50 (RXFP1 [3]) of 1.12 nM.

B1: Unconjugated PIP: recombinant human Prolactin-inducible Protein (hPIP), native (protein, UniProt P12273 29-146, looked up)
Prolactin-inducible protein: QDNTRKIIIKNFDIPKSVRPNDEVTAVLAVQTELKECMVVKTYLISSIPLQGAFNYKYTACLCDDNPKTFYWDFYTNRTVQIAAVVDVIRELGICPDDAAVIPIKNNRFYTIEILKVE
For B1, the “Plasma Insulin AUCB (ng/mL*min) compared to the vehicle” value [4] was “+29%”, the Cmax [5] was 220 nM and the MRT [5] was 12.0 h.
